Our source for the abundance fitness values is the Human Domainome abundance scans (Beltran et al. 2025).

± gives the uncertainty stated by the source.

B1: Chromodomain-helicase-DNA-binding protein 5, residues 411 to 463; numbered along this chain, Q8TDI0 (parent)
chain: EEDDHMEFCRVCKDGGELLCCDACPSSYHLHCLNPPLPEIPNGEWLCPRCTCP

In this data set the parent is B1. In words: abundance fitness (aPCA) (normalised: wild type 0, dead -1); higher = more abundant; growth selection in yeast, the domain comes from the species named. Particulars: Homo sapiens.
E2V: the abundance fitness is -0.125 ± 0.081. The result for E2D reads -0.565 ± 0.19; that for E2Q, -0.224 ± 0.14. The value for E2I was 0.392 ± 0.13; that for E2H was -0.261 ± 0.13. The result for E2P reads -0.228 ± 0.088; that for E2S, -0.062 ± 0.12. Take E2K: the abundance fitness was -0.157 ± 0.14. The result for E2R reads -0.042 ± 0.085; that for E2T, 0.011 ± 0.12.

Consider E2G, for which the abundance fitness was -0.131 ± 0.054. The result for E2C reads -0.398 ± 0.14. The value for E2L was -0.038 ± 0.062; that for E2M was -0.669 ± 0.4; that for E2W was -0.314 ± 0.13.

E2A: the abundance fitness is -0.194 ± 0.091. The value for F8T was 0.023 ± 0.077; that for F8A was -0.017 ± 0.066; that for F8H was -0.163 ± 0.1. The result for F8G reads 0.033 ± 0.044; that for F8M, -0.131 ± 0.075. The value for F8I was -0.347 ± 0.12; that for F8K was -0.409 ± 0.12; that for F8Q was -0.17 ± 0.051.

As for F8E, the abundance fitness is -0.135 ± 0.083. The result for F8W reads -0.346 ± 0.083; that for F8P, -0.261 ± 0.081. With F8S, the abundance fitness was -0.099 ± 0.073. The result for F8N reads 0.024 ± 0.11; that for F8V, -0.152 ± 0.076; that for F8R, -0.051 ± 0.045.

Take F8D: the abundance fitness is -0.138 ± 0.077. The result for F8Y reads 0.033 ± 0.088. The value for F8L was 0.015 ± 0.065. For F8C, the abundance fitness is -0.242 ± 0.097. Take H5K: the abundance fitness was 0.023 ± 0.042. The result for H5F reads 0.067 ± 0.053; that for H5C, -0.319 ± 0.094; that for H5D, -0.177 ± 0.076. For H5G, the abundance fitness is -0.246 ± 0.043. Turning to H5Y, the abundance fitness was -0.058 ± 0.048.

In the case of H5I, the abundance fitness is -0.02 ± 0.067. Regarding H5M, the abundance fitness is -0.223 ± 0.043. In the case of H5N, the abundance fitness was determined as 0.117 ± 0.064. The value for H5L was -0.223 ± 0.041. The result for H5Q reads -0.028 ± 0.049. The result for H5T reads -0.065 ± 0.038; that for H5W, -0.214 ± 0.043.

Turning to H5A, the abundance fitness was -0.26 ± 0.042. The result for H5R reads -0.089 ± 0.041; that for H5V, -0.5 ± 0.041. As for H5S, the abundance fitness was -0.197 ± 0.047. The value for H5E was -0.476 ± 0.069; that for M6C was -0.069 ± 0.065. The result for M6E reads -0.14 ± 0.088.

Turning to M6I, the abundance fitness is 0.012 ± 0.13.

As to M6H, the abundance fitness is -0.279 ± 0.19. The value for M6Y was -0.401 ± 0.099; that for M6V was -0.077 ± 0.071. The result for M6D reads -0.228 ± 0.095.

On to M6G, for which the abundance fitness is -0.09 ± 0.066. The value for M6R was -0.045 ± 0.056. The value for M6W was -0.174 ± 0.076; that for M6S was -0.233 ± 0.081; that for M6F was 0.084 ± 0.092. The result for M6P reads -0.03 ± 0.09.

M6T: the abundance fitness turned out to be 0.136 ± 0.096. The value for M6N was 0.135 ± 0.094; that for M6K was 0.172 ± 0.08. With M6A, the abundance fitness is 0.059 ± 0.074. The value for M6L was -0.121 ± 0.061. The result for C9N reads -0.735 ± 0.13. The result for C9Y reads -0.977 ± 0.068; that for C9T, -0.56 ± 0.074. Regarding C9I, the abundance fitness is -1.05 ± 0.25. On to C9F, for which the abundance fitness is -0.715 ± 0.18. The value for C9Q was -0.771 ± 0.087. The result for C9H reads -1.5 ± 0.4; that for C9V, -1.09 ± 0.069; that for C9S, -0.807 ± 0.072. The result for C9L reads -0.861 ± 0.078. On to C9K, for which the abundance fitness is -0.438 ± 0.074. Consider C9P, for which the abundance fitness is -0.94 ± 0.13. The result for C9D reads -0.595 ± 0.1; that for C9G, -0.687 ± 0.068. The value for C9R was -0.629 ± 0.062; that for E7M was -0.378 ± 0.11; that for E7V was 0.063 ± 0.064. The result for E7Q reads -0.332 ± 0.12; that for E7W, -0.247 ± 0.067; that for E7H, -0.278 ± 0.11. For E7S, the abundance fitness is -0.215 ± 0.084. Take E7Y: the abundance fitness was -0.527 ± 0.17. As for E7D, the abundance fitness came to 0.031 ± 0.085. The value for E7A was -0.031 ± 0.083; that for E7P was -0.368 ± 0.07; that for E7I was -0.123 ± 0.074. The result for E7C reads 0.095 ± 0.13. The result for E7N reads -0.07 ± 0.12; that for E7L, -0.131 ± 0.065; that for E7R, -0.027 ± 0.074. As for E7F, the abundance fitness is -0.224 ± 0.17. The result for E7G reads -0.079 ± 0.052; that for E7K, -0.316 ± 0.094.
